Numbering of substitutions follows the chain as printed. Names and notes keep the numbering of the source.
How the values were obtained:
Type in all cases: biochemical, Escherichia blattae
Details in all cases: other: transphosphorylation, 100 mM sodium pyrophosphate, 10–100 mM inosine, pH 4, 30° C., 10 min, cell free extract, Hanes-Woolf
[1] = substrate: OC[C@H]1O[C@@H](n2cnc3c(O)ncnc32)[C@H](O)[C@@H]1O; assay: Km for inosine, transphosphorylation by S72E/G74D/I153T mutant EB-AP
Method: (§1) In order to construct a mutant EB-AP for expression in Escherichia coli JM109, a plasmid pEPI340 containing a gene for G74D/I153T mutant EB-AP was used as a template for site-directed mutagenesis utilizing PCR. The nucleotide sequences of these plasmids pEPI305 and pEPI340 are disclosed in Japanese Patent Laid-open (Kokai) No. 10-201481/1998, paragraph (0143), Table 12. […]
(§2) Then, the Km value for inosine in the transphosphorylation reaction by each 3-residue replaced mutant EB-AP was measured under the following conditions. […] After 200 μl of 1 N hydrochloric acid was added to stop the reaction, the precipitates were removed by centrifugation, and the produced 5′-inosinic acid was quantified. The Km value was calculated by the Hanes-Woolf plotting.
(§3) 5′-Inosinic acid was analyzed by high performance liquid chromatography (HPLC) under the following conditions. • Column: Cosmosil 5C18-AR (4.6×150 mm), produced by Nakarai Tesque • Mobile phase: 5 mM potassium phosphate buffer (pH 2.8)/methanol=95/5 • Flow rate: 1.0 ml/min • Temperature: room temperature • Detection: UV 245 nm

[2] = substrate: OC[C@H]1O[C@@H](n2cnc3c(O)ncnc32)[C@H](O)[C@@H]1O; assay: Km for inosine, transphosphorylation by S72Y/G74D/I153T mutant EB-AP
Method: as §1, §2, §3

[3] = substrate: OC[C@H]1O[C@@H](n2cnc3c(O)ncnc32)[C@H](O)[C@@H]1O; assay: Km for inosine, transphosphorylation by A72E/L140K/10-residue replaced mutant EB-AP
[4] = substrate: OC[C@H]1O[C@@H](n2cnc3c(O)ncnc32)[C@H](O)[C@@H]1O; assay: Km for inosine, transphosphorylation by S72T/G74D/I153T mutant EB-AP
Method: as §1, §2, §3

[5] = substrate: OC[C@H]1O[C@@H](n2cnc3c(O)ncnc32)[C@H](O)[C@@H]1O; assay: Km for inosine, transphosphorylation by S72D/G74D/I153T mutant EB-AP
Method: as §1, §2, §3

[6] = substrate: OC[C@H]1O[C@@H](n2cnc3c(O)ncnc32)[C@H](O)[C@@H]1O; assay: Km for inosine, transphosphorylation by G74D/I153T mutant EB-AP
[7] = substrate: OC[C@H]1O[C@@H](n2cnc3c(O)ncnc32)[C@H](O)[C@@H]1O; assay: Km for inosine, transphosphorylation by A72E/L140F/10-residue replaced mutant EB-AP
[8] = substrate: OC[C@H]1O[C@@H](n2cnc3c(O)ncnc32)[C@H](O)[C@@H]1O; assay: Km for inosine, transphosphorylation by S72M/G74D/I153T mutant EB-AP
Method: as §1, §2, §3

[9] = substrate: OC[C@H]1O[C@@H](n2cnc3c(O)ncnc32)[C@H](O)[C@@H]1O; assay: Km for inosine, transphosphorylation by S72F/G74D/I153T mutant EB-AP
Method: as §1, §2, §3

[10] = substrate: OC[C@H]1O[C@@H](n2cnc3c(O)ncnc32)[C@H](O)[C@@H]1O; assay: Km for inosine, transphosphorylation by S72W/G74D/I153T mutant EB-AP
Method: as §1, §2, §3

[11] = substrate: OC[C@H]1O[C@@H](n2cnc3c(O)ncnc32)[C@H](O)[C@@H]1O; assay: Km for inosine, transphosphorylation by S72V/G74D/I153T mutant EB-AP
Method: as §1, §2, §3

[12] = substrate: OC[C@H]1O[C@@H](n2cnc3c(O)ncnc32)[C@H](O)[C@@H]1O; assay: Km for inosine, transphosphorylation by 10-residue replaced mutant EB-AP
[13] = substrate: OC[C@H]1O[C@@H](n2cnc3c(O)ncnc32)[C@H](O)[C@@H]1O; assay: Km for inosine, transphosphorylation by A72F/10-residue replaced mutant EB-AP
Method: (§4) Then, the Km value for inosine in the transphosphorylation reaction by each 3-residue replaced mutant EB-AP was measured under the following conditions. A reaction mixture (1 ml) containing 100 mM sodium pyrophosphate, 100 mM acetate buffer (pH 4.0), 10–100 mM inosine and 100 μl of the cell free extract was incubated at pH 4 and 30° C. for 10 minutes. After 200 μl of 1 N hydrochloric acid was added to stop the reaction, the precipitates were removed by centrifugation, and the produced 5′-inosinic acid was quantified. The Km value was calculated by the Hanes-Woolf plotting.
as §3
(§5) The S72F mutation that decreased the Km value in the highest degree and the S72E mutation that enhanced the activity in the highest degree in Example 12 were introduced into the 10-residue replaced mutant EB-AP. Since Ser72 was replaced with Ala in the 10-residue replaced mutant EB-AP, the A72F and A72E mutations were actually introduced. […] Furthermore, transphosphorylation activity and reaction rate constant were measured by the method described in Example 12. […]

[14] = substrate: OC[C@H]1O[C@@H](n2cnc3c(O)ncnc32)[C@H](O)[C@@H]1O; assay: Km for inosine, transphosphorylation by A72E/10-residue replaced mutant EB-AP
Method: as §4, §3, §5

B1: Escherichia blattae acid phosphatase (EB-AP, SEQ ID NO: 2 / 124) mutant S72E/G74D/I153T (Shimwellia blattae; G92D/I171T/S90E) (protein)
chain: LVATGNDTTTKPDLYYLKNSEAINSLALLPPPPAVGSIAFLNDQAMYEQGRLLRNTERGKLAAEDANLSEGDVANAFSGAFGSPITEKDAPALHKLLTNMIEDAGDLATRSAKDHYMRIRPFAFYGVSTCNTTEQDKLSKNGSYPSGHTSTGWATALVLAEINPQRQNEILKRGYELGQSRVICGYHWQSDVDAARVVGSAVVATLHTNPAFQQQLQKAKAEFAQHQKK
[1]
  Km: 40 mM

B2: Escherichia blattae acid phosphatase (EB-AP, SEQ ID NO: 2 / 124) mutant S72Y/G74D/I153T (Shimwellia blattae; G92D/I171T/S90Y) (protein)
chain: B1 chain with E70Y
[2]
  Km: 25 mM

B3: Escherichia blattae acid phosphatase (EB-AP, SEQ ID NO: 2 / 124) mutant A72E/L140K/10-residue replaced (L63Q/A65Q/E66A/N69D/S71A/S72A/G74D/T135K/E136D/I153T … (protein)
chain: B1 chain with L61Q, A63Q, E64A, N67D, S69A, T133K, E134D, L138K
[3]
  Km: 78 mM

B4: Escherichia blattae acid phosphatase (EB-AP, SEQ ID NO: 2 / 124) mutant S72T/G74D/I153T (Shimwellia blattae; G92D/I171T/S90T) (protein)
chain: B1 chain with E70T
[4]
  Km: 50 mM

B5: Escherichia blattae acid phosphatase (EB-AP, SEQ ID NO: 2 / 124) mutant S72D/G74D/I153T (Shimwellia blattae; G92D/I171T/S90D) (protein)
chain: B1 chain with E70D
[5]
  Km: 33 mM

B6: Escherichia blattae acid phosphatase (EB-AP, SEQ ID NO: 2 / 124) mutant G74D/I153T (Shimwellia blattae; G92D/I171T) (protein)
chain: B1 chain with E70S
[6]
  Km: 100 mM

B7: Escherichia blattae acid phosphatase (EB-AP, SEQ ID NO: 2 / 124) mutant A72E/L140F/10-residue replaced (L63Q/A65Q/E66A/N69D/S71A/S72A/G74D/T135K/E136D/I153T … (protein)
chain: B1 chain with L61Q, A63Q, E64A, N67D, S69A, T133K, E134D, L138F
[7]
  Km: 9 mM

B8: Escherichia blattae acid phosphatase (EB-AP, SEQ ID NO: 2 / 124) mutant S72M/G74D/I153T (Shimwellia blattae; G92D/I171T/S90M) (protein)
chain: B1 chain with E70M
[8]
  Km: 46 mM

B9: Escherichia blattae acid phosphatase (EB-AP, SEQ ID NO: 2 / 124) mutant S72F/G74D/I153T (Shimwellia blattae; G92D/I171T/S90F) (protein)
chain: B1 chain with E70F
[9]
  Km: 20 mM

B10: Escherichia blattae acid phosphatase (EB-AP, SEQ ID NO: 2 / 124) mutant S72W/G74D/I153T (Shimwellia blattae; G92D/I171T/S90W) (protein)
chain: B1 chain with E70W
[10]
  Km: 30 mM

B11: Escherichia blattae acid phosphatase (EB-AP, SEQ ID NO: 2 / 124) mutant S72V/G74D/I153T (Shimwellia blattae; G92D/I171T/S90V) (protein)
chain: B1 chain with E70V
[11]
  Km: 40 mM

B12: Escherichia blattae acid phosphatase (EB-AP, SEQ ID NO: 2 / 124) 10-residue replaced mutant L63Q/A65Q/E66A/N69D/S71A/S72A/G74D/T135K/E136D/I153T (Shimwellia … (protein)
chain: B1 chain with L61Q, A63Q, E64A, N67D, S69A, E70A, T133K, E134D
[12]
  Km: 40 mM

B13: Escherichia blattae acid phosphatase (EB-AP, SEQ ID NO: 2 / 124) mutant A72F/10-residue replaced (L63Q/A65Q/E66A/N69D/S71A/S72A/G74D/T135K/E136D/I153T with … (protein)
chain: B1 chain with L61Q, A63Q, E64A, N67D, S69A, E70F, T133K, E134D
[13]
  Km: 9 mM

B14: Escherichia blattae acid phosphatase (EB-AP, SEQ ID NO: 2 / 124) mutant A72E/10-residue replaced (L63Q/A65Q/E66A/N69D/S71A/S72A/G74D/T135K/E136D/I153T with … (protein)
chain: B1 chain with L61Q, A63Q, E64A, N67D, S69A, T133K, E134D
[14]
  Km: 15 mM

Reference: patent US6987008B1, “Variant nucleoside-5′-phosphate producing enzyme” (priority 1999, dated 2006)
